# Measurements taken from the DeepSol protein solubility set.
# Assay: soluble on expression in E. coli; label from the status in PepcDB or PDB records
row,Sequence,soluble on expression in E. coli
1,MGSDKIHHHHHHMAKDITLRQLRYFIAAARAGQFSMAATNEHVSQSAITNAVIALEQALGTKLFDRGAHGVTMTVDGHDFYHHARHVLDSVRDAMHKPRAGARATSGTVRIAASYAVLGYFLPELLARFRASFPAIELDLRDMDRAVIENAVLDGTIDLGVTLVSNTPRLDAFEHRILIRSRRQLWTAPSHPLAHAASMSLADIAMHPYILLTVDEGEASTTRYWQAKGMQPNIAFRTGSMEAVRGLVANGFGVTVLSDMLFRAWSLDGTRIDARPVVDSIPPMEVGLIWRPGAALAPAAQQLRHFLIQVNSGEAD,not soluble
2,MAHHHHHHSLISNHFLRDLYAIIVDDVGRFKPSAILDVGCGTGTADYFILSAFPDISVDCIDPSPYMISIARKKLSKFGSRVRAELGSSRSIPFDRRYDFVFTSISFHHWKCREDGLRNMAKYVSDHGVLAVYEYYRPNLRSFHRVAGKHALTMEDVEKLNIEGFTKKYEIRGEMMRIMFQRDEG,soluble
3,MPIILEKGQKIDLTKGQPKVAKLQVGLGWDPIGQSGGFLSSLFGSKPNVDCDASVVMLEGDRFLNKNDLVYFGNKLSTCGSIIHSGDNLTGEGAGDDETIFVELHKVPSRINRLVFVVNIYDCVNRRQDFGMIRNAYIRIQNPQTGEELARYNLSDNYAGKTTLIAGEMYRHGSEWKFSAVGEGTQDKNLSEIVSRYQ,not soluble
4,CNFRSTETIVNWVNDHFSKIFSQQVDIESGAVSFHPSVHVIEKNESSTIQAVQFKNREQEARHLIEIINSELNRNPEQTIAVLVRTRTQLPEIISLLRQNNIPYQGTDIDLLANLVHLRDVWSLAHALLFPGNRLSWLSILHSPYVGLGLSDIHCIAQYNSRKSIYHNLLHLDKIQDISEEGRIRANFFIQIMNQALLCRSHSRLSDWIADTLKNLHVEKILDKAQLNDLEQLWMLLDQYEKEGRIPDMNEFLNEFNKLYAQQTTPSRLQIMTIHKSKGLEFDTVILPGLGSQANRGESPMLRWLKLPTQDHGNLLLVSPIKSANQDNCPLYDYLDQLDEEKSAYEAQRLLYVAVTRAKSRLYLLDHSAKSYKSS,not soluble
5,MSVLIPLVTVDGRDSVLLTKRSIHLRSHRGEVCFPGGRMDPGETTTETALRETFEEIGVNAESVEIWGHLKSVIRRQADFNVTPIVGYISDERVLENLVVNSDEVQAVFTIPIDELIKKAGLTKFQSKRMKYTLPSFDSTEFKVHHNAPNEYLHSTQRVWGLSGVMLHQALTLLNPDVYKHDLIVKFF,not soluble
6,MKMTLPFKPHVLALICSAGLCAASAGLYIKSRTVEAPVETQSTQLAVSDAAAVTLPATVSAPPVTPAVVKSAFSTAQIDQWVAPVALYPDALLSQVLMASTYPTNVAQAVQWSHDNPLKQGDAAIQAVSDQPWDASVKSLVAFPQLMALMGENPQWVQNLGDAFLAQPQDVMDSVQRLRQLAQQTGSLKSSTEQKVITTTKKTVPVTQTVTAPVIPSNTVSTANPVITEPATTVISIEPGNPDVVYIPNYNPTVVYGNWANTAYPPVYLPPPAGEPFVDSFVRGFGYSMGVATTYALFSSIDWDDDDHDHHHHDDDNYHHHDGGHRDGNGWQHNGDNINIDVNNFNRITGEHLTDKNMAWRHNPNYRNGVPYHDQDMAKRFHQTDVNGGMSATQLPAPTRDSQRQAAASQFQQRTHAAPVITRDTQRQAAAQRFNEAEHYGSYDDFRDFSRRQPLTQQQKDAARQRYQSASPEQRQAVHEKMQTNPQNQQRREAARERIQPASPEQRQAVREKMQTNPQIQQRRDAARERIQSASPEQRQVFKEKVQQRPLNQQQRDNARQRVQSASPEQRQVFREKVQESRPQRLNDSNHTARLNNEQRSAVRERLSERGARRLER,not soluble
7,MQVIRKPTRMLSGVTIVSIMTHPHSCPHGKCVFCPGGVDVDTPQSYYGREPTLMRAIENDYDPFHQVQSRLRQYVENGHTPSKVELIIMGGTFLSLPIDYQDWFVTYALEAMNRFPSYDKPSFVYLEDAQVKNEKAEVRCVGMTIETKPDWAKEWHADQMLRLGATKVELGVQTVYDDILKFTNRGHTVKDSIESTRILKDSGFKVVYHVMLGLPKSDPDKDLEAFKTIFSDPNFRPDMLKIYPTLVVETAPLANLWRRGLYKPYGTETLIELISEMYRYIPKWVRVMRIQRDIPANVILDGNKKGNLRELVEKKVLEKGIKINEIRFREVGMMWQHRGLLPDHTKIHLYKEVYEASEGTEIFLSFEDEKEILIGYLRLRITSNKAHRKEIDGKTAIVRELHVYGIEVPIGSWDELGFQHRGYGSKLLSEAEKIAREEFDMRKISVLSGIGAREYYAKRGYVKEGPYMSKQLI,not soluble
8,VGQMVAVNGYKISVFVKGQGSQTLVFLSGAGTASPILDFKDVYDGFSKEYKIVVVERADYGYSEDTSKSRDVSVILSETRQSLAKSQVSGPYIILSHSMASLETLLWQENYPSEVKAVVCLDWAFPESYFQLKRHPQMLRLARWESQLGLLRLLPRQLYMPNENLSDSDRRLYQEIAYRQLLSQAMLNESLCAKENDKKVNSTSIKSQMPVLLMVSNGKGTGFGQEQWRHYATSFAKGQKNMEVTYYDSPHYFYHYQTKEMIRSIEEFVQETTD,not soluble
9,MPLEASELKPTAGPLEASELKPTAGPLEASELKPTAGPLEASELKPTAGPLEASELKPTAGPLEASELKPTAGPLEASELKPTAGMTDAFIFENKKAAFLTLGCKLNFAETSTIGKALAEQGVRPVREGEKADICVINTCSVTELADKKCRNAIRKLHKEHPGALMIVTGCYAQLKPEEIARIDGVDIVLGADEKLDLVSILSQRPIQGFAEQTILTTPTKDIRKFQPGCSADDRTRHFLKVQDGCDYHCSYCTIPKARGRSRNGSIESLVRQAEAVAAEGGKEIVLTGVNIGDFGRSTGETFLDLLRALDQVEGIERYRIGSIEPNLLSDELIDFCASAHRIAPHFHMPLQSGSDDVLKLMRRRYDTALFRERVEHIRRALPHAFIGIDVIVGTRGEKPEFFEDCYSFLQDKISFSRLHVFSYSERPGTQALQIPYKVDAREKQRRSRRLLDLSDLRLAEFYRSQEGTHRRVLWEDVCHEGLMQGFTENYIRVAAPYAADSVGKVEEIVLGKTDPSGEYVQTADTIFPLEHHHHHH,soluble
10,MIEISTSSTTTTLLVAGDLDLAEREQFPEVTARVVGLRRQLLVIDMCRVTFMDSTGAAFLISLADAGRRRGGATVLRGAADRDLFVLEICGALELFRIDADHHCELGAELPSAPEGAPAPA,not soluble
11,MNRILIVEDEKNLARFIELELQHENYETAVANDGRAGLELALNEEWDAILLDLMLPHLNGVEVCRRVRQVKQTPIIMITARDSVIDRVSGLDHGADDYIVKPFAIEELLARLRSLLRRVENAEQSAKQTTLQYRNLIVEKENRIVKRDEEIIDLTKREYELLLTLMENVNIVLTREVLLNKVWGYETEVETNVVDVYVRYLRNKIDHPDEESYIQTVRGTGYVMRT,not soluble
12,MSLRTASVIVDLPTRQTNQPFTYLIPDDLLDFNLLGHRVRVPFGKRNLMGYVVAVGQSERSDFQLKKIESIIDEKPVLNSEMLKLSEWLSNYVFSYRVQVIQTILPNAFKPKYLKGLKIVDQVPEKIKENIFLNNQEIEFLPKNYTSEQIKVINSLIRQGKIVQTTTIQKKNKGKKVKVLSNNLNDNDIATNLNKKSLSDSQKKLLIFLSGHRDGFFQVKELAEILDISKSTILTAEKKSWLKKSEVRMTRNPVKKIAVTKTNAVELNSDQKKVFNSVESAITKNENKTFLLEGITGSGKTEVYLQLIEKTIAQGKTALLLVPEIALTPQMIRLVKSRFLDSVALLHSGLSDGERLDQWEEIRDGKIKIVIGTRSAVFSPLTNIGLIIMDEEHETNYKQEGNPRYHARDIALWRAKYHQAVTLLGSATPSLESRARAQKGIFKLLTMNHRAVSGAKLPDVSIVDMREVWQKEHADNDFSPTLLKKIEERKENHEQTILLLNRRGFSSFVMCRNCGYVPRCPNCNLSLTLHMDSHSLKCHYCGYEEAIPKKCPVCGSPQIRYVGTGTEKIETKLNSLVNGIRVARLDQDTTKRKGSLEKILRDFGKGNYDVLLGTQMVAKGLDFPDVTLVGVINADIGLNLPDFRSGEKTFQLLTQVAGRSGRAGKTGEVIIQTFNPDNYAIKLAADQNYEGFYKTEMSIRHIADYSPYYYTIQVGIDGPDQFPASRAIDEVAEFIKPKLAKETIVLGPTPKAIAKLRNRYYFQIILKYKKDPNIESTLSELQTVFGEKLPKDIYLSIDRDPVSEGHHHHHH,soluble
13,VPTDCTENWVVVYLSGPLFFMSSERLKQTLLQLETKSGVVFSMRGVPSIDSTALDILEEFCLAAEGRGQQVQFAALQPEVEKMIRTIQGNQEKEYHFSVAEFLQTVHVA,not soluble
14,SLVTLGEGFEKARLTRFLEKFGGNEGSQFLYLKDYGHFYYQEEGEDQVLFGFQMKFNKCFVLADPIGQREKWTAATLAFMDQADLLGYQLVFYRISEEYVMNLHDCGFEFMKVGEEGLIQFDEPSTVNQTAWTETVTEKIAAEAADFQFEFYPETISDALYQELERVSADWSRNQKERYFIGGRLDPEYLKCSSVGLVRQKQTVIGFITGKEMEKGKSISYDLLRIRSDAPAFTREYLFTHFIETYQQQGYQLIDIGMAPLANVGESKYSFLKERFVNIFYKYSYQIYAFQDTRKRKEQYVTSWQPRYFAYPKRTSVLFAFVQLSLLITKGRHQSVSLVEEAMTEI,not soluble
15,MKTLSTMATLLALSLPVMAQECASDIMRTAPNLRYVYSTQGTVKDLHTGLTWMRCTFGKEWNAEQGRCTGQAQPLRWQAALQEVQAINHPGSRHRLHQFAGVKQWRMPNIKELSSLTEQACFAPAANETAFASGLVTEVGNYAAYLWSNTTRIEREEAWTWDAINGEIYAYSIHAHEMGLLLVADELEHHHHHH,soluble
16,MAHHHHHHMGDHLGSRFTVIEQIGSGNYGSLYRVIDGEAATLADRIIATKKLQDTINHPHVLREVSAQRHAQKCSPHIVKLLHVVPRDRVRAALVLEYVPLDLRTFLNAFYCNQAKSSAPTWCATAGADELKSAAAPPCHIPLIYVRRMLRGLIEALHCLHARGIAHRDVKPENILVEPLGLGHPLRCVCPPMGSFGPAGEAAGCWVHAPHCPDPRQEERGVTRPMQPQGTLEPCQFFRRYSVALHHELTGDELASAIHRLHCETCRPCPCARAGAGKHAPQQHRDSSEMKTGNSCAQERQADAVDEESPANVDDGEADKLTAPMSPPLMPDVKLCDFGSARHIGTLRLRSAEEQREELTPGPTTPVYCAPEMMLLQRYGTSVDMWAVGAILFEMLTGEFFLGVGTLRSFSGDVVVRDDYCVMHRLNRMFRHLGTPSVEEWRCIAHPHYYPDEMLAHLPQVRDAALFRCLAQPIDTDGSFRRDSGDIKSNGDAKTADVQTDLNVRPSAGTCSCAQAPVNGTTDSHAARASAPPRDATAARHPLNVSDFLYQHIGESGVDFLRSLLRYDPAKRMTSAEALRHPFLSPEVANM,not soluble
17,MQDDKKVAFPGDMIATTEEYLPGKNTEEKNGEIIAVKFGQIIRDDINLLISVDTQKKEFTLKKGDIVYGQVVKGEQHRYIVRIVGAFQKGLGLREIDEEMQLSLGIARRPQSDFIAIGDLIRGYVIRTGDFPEISINGNHYGVISAVCLRCRQPLVKRGITLYCENCQRTEIRKMADDYGNVDIFNYENRIQNQVKANGKRRLEHHHHHH,soluble
18,MLYIFTPTFNRGYRLSYLYDSLCNQTNKNFIWLIVDDGSEDSTKEIVSNYIKENKVSIVYLYKRNGGKHSAYNLAMRYMQPSDYHVCVDSDDWLLEDAVEIIFKDLESLTLSNRYVGLVYPRYSLNQGNNWLNPKILEVNIPDLKYKYHLKIETCIVINNAYLVDFEFPCFEGENFLSEEIMYIYLSKKGYFCPQNRKIYCFDYLEDGLTSNIFKLWRKNFKGTIFSLENSYMYVMSFPNIFDRWWSAIKIKMNIQALKMTTLGVIPTLKSEEAGWKILLGFSYLWKVARFKKSELEHHHHHH,soluble
